The values below come from US20250034274A1 (Daiichi Sankyo, published 2025).

For test [1], the target named is T1, biotinylated human TROP2 antigen (human, UniProt P09758 27-274, C-terminal Avi tag sequence biotinylated).
T1 construct: extracellular domain; Extracellular domain purified in house
T1 sequence (looked up): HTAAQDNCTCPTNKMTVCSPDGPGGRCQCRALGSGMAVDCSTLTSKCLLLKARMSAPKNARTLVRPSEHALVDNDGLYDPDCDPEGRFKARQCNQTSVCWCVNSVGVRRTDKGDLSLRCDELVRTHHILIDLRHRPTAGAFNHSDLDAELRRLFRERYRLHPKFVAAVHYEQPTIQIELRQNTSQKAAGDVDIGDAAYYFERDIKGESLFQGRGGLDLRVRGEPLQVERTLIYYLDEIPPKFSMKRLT
Description: ELISA, immobilised biotinylated human TROP2, anti-FLAG-HRP, chemiluminescence; without MMP1.
Description: (§1) NeutrAvidin (Thermo Fisher Scientific) diluted to 1 μg/ml with PBS was added at 50 μl/well to a 96-well Maxi-sorp plate (Black, Nunc) and immobilized at 4° C. overnight. The plate was washed with PBS containing 0.05% (w/v) Tween-20 (BioRad) (ELISA buffer) and then blocked with Blocker Casein (Thermo Fisher Scientific). The plate was washed with ELISA buffer, the biotinylated human TROP2 antigen (Accession Number: P09758; the extracellular domain was purified by the method known to a person skilled in the art and the C-terminal Avi tag sequence was then biotinylated) diluted to 1 μg/ml with PBS was added at 50 μl/well, and the resultant was then agitated for 30 minutes at room temperature. […] The plate was washed with ELISA buffer, the SuperSignal Pico ELISA chemiluminescent substrate (Thermo Fisher Scientific) was added, and chemiluminescence 10 minutes thereafter was then assayed using a plate reader.
(§2) The resultant was then added to the plate comprising the human TROP2 antigen immobilized thereon at 50 μl/well. The bound scFv was detected using the HRP-labeled anti-FLAG antibody (Sigma-Aldrich) diluted to 5,000-fold with ELISA buffer.

Test [2] addresses T1, biotinylated human TROP2 antigen. Briefly: ELISA, immobilised biotinylated human TROP2, anti-FLAG-HRP, chemiluminescence; scFv pre-incubated with MMP1.
Description: as §1, §2
Test [3] has the same target. The test is described as above. The source holds these as a separate data set.
Description: as §1, §2
For test [4] the target is unchanged. Description: ELISA, immobilised biotinylated human TROP2, anti-FLAG-HRP, chemiluminescence; without MMP1. The source holds these as a separate data set.
Description: as §1, §2
Test [5] addresses T2, biotinylated human GPRC5D amino terminal peptide (human, K(Biotin) at the C-terminus; C-terminal amide (NH2)).
T2 construct: The last K carries the biotin and is an added residue as printed; also called human GPRC5D antigen; humanGPRC5D antigen
T2 peptide: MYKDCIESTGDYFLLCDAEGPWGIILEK
Description: ELISA, immobilised biotinylated human GPRC5D amino terminal peptide, anti-human IgG-HRP, chemiluminescence.
Description: NeutrAvidin (Thermo Fisher Scientific) diluted to 1 μg/ml with PBS was added at 50 μl/well to a 96-well Maxi-sorp plate (Black, Nunc) and immobilized at 4° C. overnight. The plate was washed with PBS (ELISA buffer) containing 0.05 (w/v) % Tween-20 (BioRad) and then blocked with Blocker Casein (Thermo Fisher Scientific). The plate was washed with ELISA buffer, the biotinylated human GPRC5D amino terminal peptide ([sequence]-K(Biotin)-NH₂ (Peptide Institute, Inc.)) diluted to 1 μg/ml with PBS was added at 50 μl/well, and the resultant was agitated for 30 minutes at room temperature. The plate was washed with ELISA buffer, the MMP-buffered antibody was added at 50 μl/well, and the resultant was then agitated for 30 minutes at room temperature. The plate was washed with ELISA buffer, 50 μl of the horseradish peroxidase (HRP)-labeled anti-human IgG antibody (Jackson Immuno Research Laboratories) diluted to 2,500-fold with ELISA buffer was added, and the resultant was then agitated for 30 minutes at room temperature. The plate was washed with ELISA buffer, the SuperSignal Pico ELISA chemiluminescent substrate (Thermo Fisher Scientific) was added, and chemiluminescence 10 minutes thereafter was then assayed using a plate reader.

Test [6] deals with T1, biotinylated human TROP2 antigen. Briefly: ELISA, immobilised biotinylated human TROP2, anti-human IgG-HRP, chemiluminescence; without MMP1.
Description: (§3) NeutrAvidin (Thermo Fisher Scientific) diluted to 1 μg/ml with PBS was added at 50 μl/well to a 96-well Maxi-sorp plate (Black, Nunc) and immobilized at 4° C. overnight. The plate was washed with PBS containing 0.05% (w/v) Tween-20 (BioRad) (ELISA buffer) and then blocked with Blocker Casein (Thermo Fisher Scientific). The plate was washed with ELISA buffer, the biotinylated human TROP2 antigen (Accession Number: P09758; the extracellular domain was purified by the method known to a person skilled in the art and the C-terminal Avi tag sequence was then biotinylated) diluted to 1 μg/ml with PBS was added at 50 μl/well, and the resultant was then agitated for 30 minutes at room temperature. […] The plate was washed with ELISA buffer, 50 μl of the horseradish peroxidase (HRP)-labeled anti-human IgG antibody (Jackson Immuno Research Laboratories) diluted to 2,500-fold with ELISA buffer was added, and the resultant was then agitated for 30 minutes at room temperature. The plate was washed with ELISA buffer, the SuperSignal Pico ELISA chemiluminescent substrate (Thermo Fisher Scientific) was added, and chemiluminescence 10 minutes thereafter was then assayed using a plate reader.
Test [7] has the same target. Briefly: ELISA, immobilised biotinylated human TROP2, anti-human IgG-HRP, chemiluminescence.
Description: as §3
Test [8] has the same target. Briefly: ELISA, immobilised biotinylated human TROP2, anti-human IgG-HRP, chemiluminescence; antibody pre-incubated with MMP1.
Description: as §3
The target is the same in test [9]. Description: ELISA, immobilised biotinylated human TROP2, anti-human IgG-HRP, chemiluminescence; antibody pre-incubated with uPA.
Description: as §3
Test [10] has the same target. Description: ELISA on human TROP2, antibody with or without uPA cleavage.
Description: as §3
For test [11] the target is unchanged. Description: ELISA, immobilised biotinylated human TROP2, anti-human IgG-HRP, chemiluminescence; without uPA.
Description: as §3
For test [12] the target is unchanged. Description: ELISA, immobilised biotinylated human TROP2, anti-human IgG-HRP, chemiluminescence; without MMP1. The source holds these as a separate data set.
Description: as §3
For test [13] the target is unchanged. Description: ELISA on human TROP2, antibody with or without MMP1 cleavage.
Description: as §3
For test [14] the target is unchanged. Description: ELISA, immobilised biotinylated human TROP2, anti-human IgG-HRP, chemiluminescence; antibody pre-incubated with MMP1. The source holds these as a separate data set.
Description: as §3
For test [15] the target is unchanged. Description: ELISA, immobilised biotinylated human TROP2, anti-FLAG-HRP, chemiluminescence; without MMP1. The source holds these as a separate data set.
Description: as §1, §2
Test [16] has the same target. Description: ELISA on human TROP2, scFv with or without MMP1 cleavage.
Description: as §2
Thereafter, the antibody with the concentration thereof being adjusted with ELISA buffer was added to the wells.
For test [17] the target is unchanged. Description: ELISA, immobilised biotinylated human TROP2, anti-FLAG-HRP, chemiluminescence; scFv pre-incubated with MMP1. The source holds these as a separate data set.
Description: as §1, §2
The target is the same in test [18]. The description is as above. This is another data set of the same source.
Description: as §1, §2

B1: HT1-11-scFv-LH (scFv)
scFv: ADVNSDIQMTQSPSSLSASVGDRVTITCKASQDVSTAVAWYQQKPGKAPKLLIYSASYRYTGVPSRFSGSGSGTDFTLTISSLQPEDFAVYYCQQHYITPLTFGQGTKLEIKRGGGGSGGGGSGGGGSQVQLVQSGAEVKKPGASVKVSCKASGYTFTTAGMQWVRQAPGQGLEWMGWINTHSGVPKYAEDFKGRVTISADTSTSTAYLQLSSLKSEDTAVYYCARSGFGSSYWYFDVWGQGTLVTVSSGAPSGDYKDDDDKGAAAHHHHHH
notes: No mimotope fused; expressed in E. coli, purified on Ni Sepharose; also called scFv-type anti-TROP2 antibody
Take B1: the “EC50 (read off the curve)” value in [1] and in test [2] was approximately 3 nM in each case.

B2: HT1-11-scFv-HL (scFv)
scFv: ADVNSQVQLVQSGAEVKKPGASVKVSCKASGYTFTTAGMQWVRQAPGQGLEWMGWINTHSGVPKYAEDFKGRVTISADTSTSTAYLQLSSLKSEDTAVYYCARSGFGSSYWYFDVWGQGTLVTVSSGGGGSGGGGSGGGGSDIQMTQSPSSLSASVGDRVTITCKASQDVSTAVAWYQQKPGKAPKLLIYSASYRYTGVPSRFSGSGSGTDFTLTISSLQPEDFAVYYCQQHYITPLTFGQGTKLEIKRGAPSGDYKDDDDKGAAAHHHHHH
notes: as for B1
As for B2, the 50% effective concentration (EC50 (read off the curve)) in test [3] is approximately 4 nM; in test [4], approximately 5 nM.

B3: anti-GPRC5D antibody C3022 (antibody, V domains shown)
VH: QVQLVQSGAEVKKPGASVKVSCKASGYTFTGYYMHWVRQAPGQGLEWMGRINPNSGGTNYAQKFQGRVTMTRDTSISTAYMELSGLRSDDTAVYYCASGSVRHPWGQGTLVTVSS
VL: QPVLTQPPSASGTPGQRVTISCSGSRSNIGGNIVSWYQQFPGTAPRLLTYADNQRPSGVPDRFSGSKSGTSASLAISGLQSEDEADYYCAAWDDSLNGVVFGGGTKLTVLG
notes: Known antibody of WO 2018/147245
With B3, the half-maximal effective concentration (EC50 (read off the curve)) in test [5] is approximately 0.3 nM.

B4: anti-TROP2 antibody HT1-11 (antibody)
heavy: not shown
light: DIQMTQSPSSLSASVGDRVTITCKASQDVSTAVAWYQQKPGKAPKLLIYSASYRYTGVPSRFSGSGSGTDFTLTISSLQPEDFAVYYCQQHYITPLTFGQGTKLEIKRTVAAPSVFIFPPSDEQLKSGTASVVCLLNNFYPREAKVQWKVDNALQSGNSQESVTEQDSKDSTYSLSSTLTLSKADYEKHKVYACEVTHQGLSSPVTKSFNRGEC
notes: Known antibody of WO 2015/098099; Entries are called full-length
As for B4, the concentration giving a half-maximal response (EC50 (read off the curve)) was approximately 0.5 nM in test [6], approximately 0.6 nM in test [7] and approximately 0.5 nM in test [8].

B5: anti-TROP2 masked antibody MHT1009 (antibody)
heavy: not shown
light: DIQMTQSPSSLSASVGDRVTITCKASQDVSTAVAWYQQKPGKAPKLLIYSASYRYTGVPSRFSGSGSGTDFTLTISSLQPEDFAVYYCQQHYITPLTFGQGTKLEIKRTVAAPSVFIFPPSDEQLKSGTASVVCLLNNFYPREAKVQWKVDNALQSGNSQESVTEQDSKDSTYSLSSTLTLSKADYEKHKVYACEVTHQGLSSPVTKSFNRGEC
notes: IgG-type
For the molecule B5, the figures for the half-maximal effective concentration (EC50 (read off the curve)) in [9] and in test [11] were approximately 1 nM and approximately 90 nM, respectively. Besides, the “EC50 ratio of binding (under the condition without the addition of uPA/under the condition with the addition of uPA)” value in test [10] amounted to 83.

B6: anti-TROP2 masked antibody MHT1007 (antibody)
heavy: not shown
light: DIQMTQSPSSLSASVGDRVTITCKASQDVSTAVAWYQQKPGKAPKLLIYSASYRYTGVPSRFSGSGSGTDFTLTISSLQPEDFAVYYCQQHYITPLTFGQGTKLEIKRTVAAPSVFIFPPSDEQLKSGTASVVCLLNNFYPREAKVQWKVDNALQSGNSQESVTEQDSKDSTYSLSSTLTLSKADYEKHKVYACEVTHQGLSSPVTKSFNRGEC
notes: IgG-type; MHT1001 mimotope and MMP cleavable linker fused to the heavy chain
Turning to B6, the results for the “EC50 (read off the curve)” value in [12] and in test [14] were approximately 30 nM and approximately 0.3 nM, respectively. In test [13], the “EC50 ratio of binding (under the condition without the addition of MMP1/under the condition with the addition of MMP1)” value amounted to 104.

B7: MHT1002 (scFv)
scFv: AMGYLALKHPWPGLAENSGSGGGGSVLVPMAMMASGGSDVNSDIQMTQSPSSLSASVGDRVTITCKASQDVSTAVAWYQQKPGKAPKLLIYSASYRYTGVPSRFSGSGSGTDFTLTISSLQPEDFAVYYCQQHYITPLTFGQGTKLEIKRGGGGSGGGGSGGGGSQVQLVQSGAEVKKPGASVKVSCKASGYTFTTAGMQWVRQAPGQGLEWMGWINTHSGVPKYAEDFKGRVTISADTSTSTAYLQLSSLKSEDTAVYYCARSGFGSSYWYFDVWGQGTLVTVSSGAPSGDYKDDDDKGAAAHHHHHH
notes: Mimotope peptide, MMP cleavable linker, HT1-11 scFv, FLAG tag, His tag; also called positive clone MHT1002
For the molecule B7, the results for the “EC50 (read off the curve)” value in test [15] and in [17] were 10 to 20 nM and approximately 3 nM, respectively. The “EC50 ratio of binding (under the condition without the addition of MMP1/under the condition with the addition of MMP1)” value in [16] is 4.3.

B8: MHT1001 (scFv)
scFv: AMGYLALKHPWPGLAENSGSGGGGSVLVPMAMMASGGSDVNSQVQLVQSGAEVKKPGASVKVSCKASGYTFTTAGMQWVRQAPGQGLEWMGWINTHSGVPKYAEDFKGRVTISADTSTSTAYLQLSSLKSEDTAVYYCARSGFGSSYWYFDVWGQGTLVTVSSGGGGSGGGGSGGGGSDIQMTQSPSSLSASVGDRVTITCKASQDVSTAVAWYQQKPGKAPKLLIYSASYRYTGVPSRFSGSGSGTDFTLTISSLQPEDFAVYYCQQHYITPLTFGQGTKLEIKRGAPSGDYKDDDDKGAAAHHHHHH
notes: also called positive clone MHT1001
Regarding B8, the “EC50 (read off the curve)” value in [18] was approximately 8 nM. Further, the “EC50 ratio of binding (under the condition without the addition of MMP1/under the condition with the addition of MMP1)” value in test [16] was found to be 7.9.
